Assay results reported in patent US20240317847A1 (Bayer, published 2024).
Substitutions are numbered along the chain they refer to. Like-named read-outs stand apart in the source and are kept apart here.

T1: human IL-11 (human, UniProt P20809 22-199)
T1 sequence: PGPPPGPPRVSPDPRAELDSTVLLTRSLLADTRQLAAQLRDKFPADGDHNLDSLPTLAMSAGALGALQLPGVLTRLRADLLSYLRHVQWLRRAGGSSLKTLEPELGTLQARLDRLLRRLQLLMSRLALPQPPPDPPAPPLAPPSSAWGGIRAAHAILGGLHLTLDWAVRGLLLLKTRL

T2: murine IL-11 (mouse, UniProt P47873 22-199)
T2 sequence: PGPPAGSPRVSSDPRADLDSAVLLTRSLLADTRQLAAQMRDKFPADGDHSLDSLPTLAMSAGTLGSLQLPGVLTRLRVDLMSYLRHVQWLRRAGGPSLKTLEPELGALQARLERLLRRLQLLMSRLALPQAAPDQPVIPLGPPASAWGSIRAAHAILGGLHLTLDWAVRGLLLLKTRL

T3: human IL-11 (human, UniProt P20809 22-199)
T3 sequence: T1 sequence

T4: murine IL-11 (mouse, UniProt P47873 22-199)
T4 sequence: T2 sequence

T5: cynomolgus IL-11 (cynomolgus, UniProt P20808 22-199)
T5 sequence: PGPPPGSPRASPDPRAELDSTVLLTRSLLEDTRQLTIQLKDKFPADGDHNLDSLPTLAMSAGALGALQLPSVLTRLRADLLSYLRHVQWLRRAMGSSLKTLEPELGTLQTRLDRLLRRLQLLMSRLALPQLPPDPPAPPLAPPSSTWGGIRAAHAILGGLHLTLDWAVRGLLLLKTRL

T6: rat IL-11 (rat, UniProt Q99MF5 22-199)
T6 sequence: T2 sequence with S50N, L84F, G94A, V137A, I138V

B1: TPP-31286 (antibody, IgG4, V domains shown)
VH: QVQLLESGGGLVQPGGSLRLSCAASGFTFSHYDMNWLRQAPGKGLEWVGVISYDGSNKFYADFVKGRFTISRDNSKNTLYLQMNSLRAEDTAVYYCARTPGSHFDYWGQGTLVTVSS
VL: QSVLTQPPSASGTPGQRVTISCSGSSSNIGNNAVNWYQQLPGTAPKLLIYYDDLLPSGVPDRFSGSKSGTSASLAISGLRSEDEADYYCSAWDDSLNGVVFGGGTKLTVL
B2: TPP-31288 (antibody, IgG4, V domains shown)
VH: B1 VH with Q1E, L11V
VL: B1 VL
B3: TPP-31287 (antibody, IgG4, V domains shown)
VH: B1 VH with Q1E, L5V
VL: B1 VL
B4: TPP-31289 (antibody, IgG4, V domains shown)
VH: B1 VH with Q1E, G16R
VL: B1 VL
B5: TPP-23552 (antibody, human IgG1, kappa)
heavy: not shown
light: DIVLTQSPASLALSPGERATLSCRASKSVSTSGYSYIHWYQQKPGQPPRLLIYLASNLDSGVPARFSGSGSGTDFTLNIHPLEEEDFATYYCQHSRDLPPTFGQGTKLEIKRTVAAPSVFIFPPSDEQLKSGTASVVCLLNNFYPREAKVQWKVDNALQSGNSQESVTEQDSKDSTYSLSSTLTLSKADYEKHKVYACEVTHQGLSSPVTKSFNRGEC
notes: hIgG1, Kappa; also called BSN 3C6 (WO2019238882)

How the values were obtained:
human IL-11 [1] = target: T1, human IL-11; test: cell-based or functional assay
murine IL-11 [2] = target: T2, murine IL-11; test: cell-based or functional assay
human IL-11 [3] = target: T1, human IL-11; test: cell-based or functional assay; remark: listed apart in the source
murine IL-11 [4] = target: T2, murine IL-11; test: cell-based or functional assay; remark: listed apart in the source
human IL-11 [5] = target: T3, human IL-11; test: cell-based or functional assay; remark: listed apart in the source
murine IL-11 [6] = target: T4, murine IL-11; test: cell-based or functional assay; remark: listed apart in the source
human IL-11 [7] = target: T3, human IL-11; test: cell-based or functional assay; remark: listed apart in the source
murine IL-11 [8] = target: T4, murine IL-11; test: cell-based or functional assay; remark: listed apart in the source
cynomolgus IL-11 = target: T5, cynomolgus IL-11; test: cell-based or functional assay
rat IL-11 = target: T6, rat IL-11; test: cell-based or functional assay
human IL-11 [9] = target: T3, human IL-11; test: Tri-complex ELISA, hIL-11 + mIL-11Ra-Fc + hgp130-Fc, inhibition of complex formation
Procedure: In the Tri-complex ELISA format IL-11 antibodies are tested for their ability to inhibit the formation of a complex consisting of murine or human gp130-Fc fusion protein, with murine or human IL-11, and a murine IL11RA-Fc fusion protein. The assay format was adapted according to FIG. 18 (a, b), depending on whether murine or human IL-11 IgG antibodies were tested.
(§1) IgG converted antibodies were subjected to the experimental assay procedure described in Example 19 and IC50 [M], respectively efficacy (%) were calculated accordingly.

murine IL-11 [10] = target: T4, murine IL-11; test: Tri-complex ELISA, mIL-11 + mIL-11Ra-Fc + mgp130-Fc, inhibition of complex formation
Procedure: In a first step, 25 μl of goat anti human IgG (Sigma, #12136), diluted 1:1000 in coating buffer (Candor, #121125) was coated on the plate at 4° C. overnight. Next day, the plate was washed one time with 50 μl PBST and then blocked with 50 μl SmartBlock (Candor, #113125) for one hour at room temperature (RT). […] After three additional washes of the coated and blocked microtiter plate with PBS-T, 25 μl of each mixture were added and the assay plate was incubated for one hour at room temperature. After three additional washes, anti-mouse-gp130 biotinylated antibody (R&D, #BAF468) or anti-human gp130 biotinylated antibody (R&D, #BAF228), both 1:1000 in 10% SmartBlock PBS-T, was added and incubated for 1 hour at RT. After three additional washes, a Streptavidin-Peroxidase conjugate (Sigma, #S5512) 1:1000 in SmartBlock PBS-T was added and incubated for one hour at room temperature. After a final three washes, AmplexRed (Fisher Scientific, A12222), 1/1000 in PBS, 0,003% H₂O₂, was added as substrate and incubated for 15 min at RT in the dark. Then, the fluorescence was measured with a plate reader at 535/595 nm. Signals from dose responses were used to calculate IC50 values using GraphPad Prism software. Efficacy was calculated as [(signal measured at lowest antibody concentration−signal measured at the highest antibody concentration)×100] divided by (signal measured at lowest antibody concentration−signal measured in the absence of antibody at an IL11 concentration of 8.2E-11 [M]).
as §1

Binder	RGA potency (mean) (human IL-11 [1])	RGA potency (mean) (murine IL-11 [2])	IC50, RGA 1 (human IL-11 [3])	IC50, RGA 2 (human IL-11 [3])	IC50, RGA 1 (murine IL-11 [4])	IC50, RGA 2 (murine IL-11 [4])	further results
B1	< 170 nM	< 170 nM	59 nM	37 nM	18 nM	13 nM	
B2	< 170 nM	< 170 nM	67 nM	141 nM	47 nM	23 nM	
B3	< 170 nM	< 170 nM	127 nM	56 nM	41 nM	15 nM	
B4	< 170 nM	< 170 nM	61 nM	76 nM	27 nM	23 nM	
B5							Efficacy (%), Stat3 reporter gene assay (human IL-11 [5]): 87.9%; IC50, Stat3 reporter gene assay (human IL-11 [5]): 18 nM; Efficacy (%), Stat3 reporter gene assay (murine IL-11 [6]): 76%; IC50, Stat3 reporter gene assay (murine IL-11 [6]): 22 nM; Efficacy (%), Stat3 reporter gene assay (human IL-11 [7]): 76.7%; IC50, Stat3 reporter gene assay (human IL-11 [7]): 3.7 nM; Efficacy (%), Stat3 reporter gene assay (murine IL-11 [8]): 90.9%; IC50, Stat3 reporter gene assay (murine IL-11 [8]): 8.1 nM; Efficacy (%), Stat3 reporter gene assay (cynomolgus IL-11): 52.4%; Efficacy (%), Stat3 reporter gene assay (rat IL-11): 81.3%; IC50, Stat3 reporter gene assay (rat IL-11): 8.8 nM; Efficacy (%) (human IL-11 [9]): 90.6%; IC50 (human IL-11 [9]): 6.8 nM; Efficacy (%) (murine IL-11 [10]): 90.7%; IC50 (murine IL-11 [10]): 23 nM
